Literature values as cited in PMC11076503.

Biological target: Mpro (Severe acute respiratory syndrome coronavirus 2) (UniProt P0DTD1)

Q: Which Kd does the source give for Mpro (from UniProt P0DTD1) here?
A: The Kd was 7 µM.
